FireProtDB (doi:10.1006/jmbi.1999.3146)
Several values for one entry are separate records, joined by “and”; a condition that tells them apart may be missing. Equal entries are not always repeated.

Settings: Myxococcus xanthus, Thermal, DSC, reversible: yes, whole UniProt chain shown
[1] = pH 3, glycine-HCl 20 mM, CaCl2 3 mM
[2] = pH 6, Sodium cacodylate 20 mM, CaCl2 3 mM

B1: Development-specific protein S wild type, P02966 (protein)
chain: MANITVFYNEDFQGKQVDLPPGNYTRAQLAALGIENNTISSVKVPPGVKAILYQNDGFAGDQIEVVANAEELGPLNNNVSSIRVISVPVQPRARFFYKEQFDGKEVDLPPGQYTQAELERYGIDNNTISSVKPQGLAVVLFKNDNFSGDTLPVNSDAPTLGAMNNNTSSIRIS
Question: With B1 as the protein, how does the “unfolding enthalpy (calorimetric)” value (pH 1.5, glycine-HCl 20 mM, CaCl2 3 mM) read?
Answer: The value was 51.9 kcal/mol and 44.5 kcal/mol.

Question: What about the “unfolding enthalpy (calorimetric)” value (pH 1.5, glycine-HCl 20 mM) of the same protein?
Answer: Its value is 48.8 kcal/mol and 42.8 kcal/mol.

Question: And the “unfolding enthalpy (calorimetric)” value (pH 1.75, glycine-HCl 20 mM, CaCl2 3 mM)?
Answer: Its value is 50.9 kcal/mol and 46.9 kcal/mol.

Question: And the “unfolding enthalpy (calorimetric)” value (pH 2, glycine-HCl 20 mM, CaCl2 3 mM)?
Answer: The value was 58.6 kcal/mol and 49.2 kcal/mol and 50.2 kcal/mol.

Question: What about the Tm (pH 2, glycine-HCl 20 mM) of the same protein?
Answer: The Tm was 47.9 °C.

Question: And the “unfolding enthalpy (calorimetric)” value (pH 2, glycine-HCl 20 mM)?
Answer: Its value is 55.2 kcal/mol.

Question: What about the “unfolding enthalpy (calorimetric)” value (pH 2.25, glycine-HCl 20 mM, CaCl2 3 mM) of the same protein?
Answer: Its value is 66 kcal/mol and 55.2 kcal/mol and 54.5 kcal/mol.

Question: What about the Tm (pH 2.25, glycine-HCl 20 mM) of the same protein?
Answer: Its Tm is 38.3 °C.

Question: What about the “unfolding enthalpy (calorimetric)” value (pH 2.25, glycine-HCl 20 mM) of the same protein?
Answer: The value was 65.7 kcal/mol.

Question: And the “unfolding enthalpy (calorimetric)” value (pH 2.5, glycine-HCl 20 mM, CaCl2 3 mM)?
Answer: The value was 77 kcal/mol and 59 kcal/mol and 60.5 kcal/mol.

Question: And the Tm [1]?
Answer: Its Tm is 55 °C and 57.3 °C and 59 °C.

Question: What about the “unfolding enthalpy (calorimetric)” value [1] of the same protein?
Answer: Its value is 94.2 kcal/mol and 77.2 kcal/mol and 62.1 kcal/mol.

Question: And the Tm (pH 3, glycine-HCl 20 mM)?
Answer: The Tm was 53.7 °C and 54.6 °C.

Question: And the “unfolding enthalpy (calorimetric)” value (pH 3, glycine-HCl 20 mM)?
Answer: The value was 89.2 kcal/mol and 69.5 kcal/mol.

Question: And the Tm [2]?
Answer: The Tm was 70.1 °C.

Question: What about the “unfolding enthalpy (calorimetric)” value [2] of the same protein?
Answer: The value was 79.1 kcal/mol.

Question: And the Tm (pH 6, Sodium cacodylate 20 mM)?
Answer: Its Tm is 68.9 °C.

Question: What about the “unfolding enthalpy (calorimetric)” value (pH 6, Sodium cacodylate 20 mM) of the same protein?
Answer: Its value is 67.9 kcal/mol.

Question: And the “unfolding enthalpy (calorimetric)” value (pH 9, glycine-NaOH 20 mM)?
Answer: The value was 83.7 kcal/mol and 66.4 kcal/mol and 65 kcal/mol.
